Target: the molecule itself
Test: SAXS; Sav1866-SMALPs from the 12 ml SEC fraction, undiluted sample, 20 mM Tris pH 8, 150 mM NaCl; DAMMIF models with P1 and P2 symmetry fitted with the crystal structure 2HYD

B1: Staphylococcus aureus ABC transporter Sav1866 in styrene-maleic acid lipid particles (natural protein)
chain: MIKRYLQFVKPYKYRIFATIIVGIIKFGIPMLIPLLIKYAIDGVINNHALTTDEKVHHLTIAIGIALFIFVIVRPPIEFIRQYLAQWTSNKILYDIRKKLYNHLQALSARFYANNQVGQVISRVINDVEQTKDFILTGLMNIWLDCITIIIALSIMFFLDVKLTLAALFIFPFYILTVYVFFGRLRKLTRERSQALAEVQGFLHERVQGISVVKSFAIEDNEAKNFDKKNTNFLTRALKHTRWNAYSFAAINTVTDIGPIIVIGVGAYLAISGSITVGTLAAFVGYLELLFGPLRRLVASFTTLTQSFASMDRVFQLIDEDYDIKNGVGAQPIEIKQGRIDIDHVSFQYNDNEAPILKDINLSIEKGETVAFVGMSGGGKSTLINLIPRFYDVTSGQILIDGHNIKDFLTGSLRNQIGLVQQDNILFSDTVKENILLGRPTATDEEVVEAAKMANAHDFIMNLPQGYDTEVGERGVKLSGGQKQRLSIARIFLNNPPILILDEATSALDLESESIIQEALDVLSKDRTTLIVAHRLSTITHADKIVVIENGHIVETGTHRELIAKQGAYEHLYSIQNL
notes: Sav1866, ABC transporter (half-transporter, homodimer) of Staphylococcus aureus; expressed from pet-19b:sav1866; M from chemical composition 64 863 Da; the undigested band at 65 kDa is called full-length Sav1866; Embedded in a SMALP nanoparticle with E. coli lipids; The DNA construct was a gift; its exact limits and linker are not described; also called Sav1866-SMALPs; Sav1866-10His; source: E. …
- stoichiometry N: 2

— paper PMC8883494, “Conformational trapping of an ABC transporter in polymer lipid nanoparticles” (Biochemical Journal, 2021)
